What all share (test): cell-based or functional assay
Test [1] has as its target SARS-CoV-2 spike (S) protein, synthetic variant "BA.4+all".
In test [2] the target is SARS-CoV-2 Omicron BA.1 spike (S) protein, pseudovirus construct (SARS-CoV-2) (UniProt P0DTC2).
Test [3] concerns the target SARS-CoV-2 Omicron BA.1.1 spike (S) protein, pseudovirus construct (SARS-CoV-2) (UniProt P0DTC2).
Test [4] addresses SARS-CoV-2 Omicron BA.2 spike (S) protein, pseudovirus construct (SARS-CoV-2) (UniProt P0DTC2).
The target of test [5] is SARS-CoV-2 Omicron BA.3 spike (S) protein, pseudovirus construct (SARS-CoV-2) (UniProt P0DTC2).
In test [6] the target is SARS-CoV-2 Victoria spike (S) protein (SARS-CoV-2) (UniProt P0DTC2).
In test [7] the target is SARS-CoV-2 spike (S) protein, Omicron BA.2 + N460K (SARS-CoV-2) (UniProt P0DTC2).
The target of test [8] is SARS-CoV-2 spike (S) protein, Omicron BA.2 + D339H (SARS-CoV-2) (UniProt P0DTC2).
In test [9] the target is SARS-CoV-2 spike (S) protein, Omicron BA.2 + G446S (SARS-CoV-2) (UniProt P0DTC2).
For test [10], the target named is SARS-CoV-2 spike (S) protein, Omicron BA.2 + N460K (SARS-CoV-2) (UniProt P0DTC2). This is another data set of the same source.

Read-outs that look alike come from different tables or passages of the source. A value given as a limit tells only on which side of the number the result lay.

Chain of Omi-29 (antibody) (VH): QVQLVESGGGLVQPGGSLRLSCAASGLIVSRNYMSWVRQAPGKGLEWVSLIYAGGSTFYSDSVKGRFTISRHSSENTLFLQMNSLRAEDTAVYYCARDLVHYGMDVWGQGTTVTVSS
Chain of Omi-29 (antibody) (VL): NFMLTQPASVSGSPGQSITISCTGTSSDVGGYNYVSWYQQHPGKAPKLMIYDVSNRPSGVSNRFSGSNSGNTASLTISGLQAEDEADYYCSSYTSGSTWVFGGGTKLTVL
Chain of Omi-32 (antibody) (VH): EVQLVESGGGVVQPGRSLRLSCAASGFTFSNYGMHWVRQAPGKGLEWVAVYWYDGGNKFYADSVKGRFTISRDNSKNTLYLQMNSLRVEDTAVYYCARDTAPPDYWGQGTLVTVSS
Chain of Omi-32 (antibody) (VL): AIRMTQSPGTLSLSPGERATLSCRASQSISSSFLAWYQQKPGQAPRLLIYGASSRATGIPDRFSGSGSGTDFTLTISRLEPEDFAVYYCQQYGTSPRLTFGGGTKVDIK
Chain of Omi-18 (antibody) (VH): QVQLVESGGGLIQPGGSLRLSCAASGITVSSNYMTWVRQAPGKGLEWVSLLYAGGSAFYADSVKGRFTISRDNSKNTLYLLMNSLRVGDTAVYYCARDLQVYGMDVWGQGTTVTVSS
Chain of Omi-18 (antibody) (VL): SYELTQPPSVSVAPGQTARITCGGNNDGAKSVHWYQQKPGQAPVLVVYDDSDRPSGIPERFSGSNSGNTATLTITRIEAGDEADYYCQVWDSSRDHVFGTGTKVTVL
Chain of Omi-12 (antibody) (VH): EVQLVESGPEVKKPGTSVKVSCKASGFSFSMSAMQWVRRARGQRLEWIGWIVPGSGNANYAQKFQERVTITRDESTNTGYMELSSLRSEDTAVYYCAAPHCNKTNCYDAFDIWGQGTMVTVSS
Chain of Omi-12 (antibody) (VL): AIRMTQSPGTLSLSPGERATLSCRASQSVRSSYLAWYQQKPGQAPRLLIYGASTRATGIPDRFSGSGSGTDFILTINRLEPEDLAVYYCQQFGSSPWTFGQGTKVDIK
Chain of Omi-42 (antibody) (VH): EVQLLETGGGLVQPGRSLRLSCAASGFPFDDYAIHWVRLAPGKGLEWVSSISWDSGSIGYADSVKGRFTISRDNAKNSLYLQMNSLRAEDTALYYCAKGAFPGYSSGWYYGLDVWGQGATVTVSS
Chain of Omi-42 (antibody) (VL): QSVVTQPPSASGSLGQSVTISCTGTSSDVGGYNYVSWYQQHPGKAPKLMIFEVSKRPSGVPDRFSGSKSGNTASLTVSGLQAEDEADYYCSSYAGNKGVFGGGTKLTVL
Chain of AZD8895 (antibody) (VH): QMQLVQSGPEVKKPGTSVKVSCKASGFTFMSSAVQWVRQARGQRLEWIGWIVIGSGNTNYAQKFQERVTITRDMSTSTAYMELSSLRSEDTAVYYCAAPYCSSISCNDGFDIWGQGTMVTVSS
Chain of AZD8895 (antibody) (VL): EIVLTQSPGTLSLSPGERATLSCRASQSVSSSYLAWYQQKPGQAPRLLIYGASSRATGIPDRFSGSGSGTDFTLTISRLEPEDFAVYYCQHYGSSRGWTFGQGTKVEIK

Take ADG20 (antibody): the IC50, pseudoviral neutralization in test [1] was > 10 µg/mL.

Turning to AZD1061 (antibody), the IC50, pseudoviral neutralization in [1] was > 10 µg/mL.

With “AZD7442 (a combination of AZD8895 and AZD1061)”, in test [1], the IC50, pseudoviral neutralization was > 10 µg/mL.

As for AZD8895 (antibody), in test [1], the IC50, pseudoviral neutralization is > 10 µg/mL.

With Known Antibody E (AZD7442), the IC50 (ug/ml), pseudovirus in [2] was 0.232 µg/mL; in test [3] it was 0.806 µg/mL; in [4], 0.008 µg/mL; in [5] it was 0.065 µg/mL; in test [6], 0.001 µg/mL.

As for LY-CoV1404 (bebtelovimab) (antibody), the IC50, pseudoviral neutralization in [1] is > 10 µg/mL.

In the case of Ly-CoV16 (antibody), the IC50, pseudoviral neutralization in test [1] was > 10 µg/mL.

On to Ly-CoV555 (antibody), for which, in test [1], the IC50, pseudoviral neutralization is > 10 µg/mL.

Consider Omi-03 (antibody), for which the pseudovirus neutralisation IC50 in test [7] was found to be 0.401 µg/mL; in test [8] it was 0.006 µg/mL; in [9] it was 0.005 µg/mL; in test [10], 0.401 µg/mL. In test [1], this substance displayed an IC50, pseudoviral neutralization of 0.432 µg/mL.

As to Omi-12 (antibody), the pseudovirus neutralisation IC50 in test [7] is 0.011 µg/mL; in [8], 0.003 µg/mL; in [9], 0.003 µg/mL; in [10], 0.011 µg/mL. Besides, the IC50, pseudoviral neutralization in test [1] was > 10 µg/mL.

Consider Omi-18 (antibody), for which the pseudovirus neutralisation IC50 in test [7] came out at 0.014 µg/mL; in test [8], 0.003 µg/mL; in [9] it was 0.003 µg/mL; in [10], 0.014 µg/mL. Also, in test [1], the IC50, pseudoviral neutralization was 3.61 µg/mL.

For Omi-29 (antibody), the pseudovirus neutralisation IC50 in test [7] was > 10 µg/mL; in [8], 0.018 µg/mL; in test [9], 0.024 µg/mL; in test [10], > 10 µg/mL. Besides, in test [1], the IC50, pseudoviral neutralization is > 10 µg/mL.

For Omi-32 (antibody), the pseudovirus neutralisation IC50 in [7] was found to be 2.34 µg/mL; in test [8] it was 0.683 µg/mL; in test [9], 0.33 µg/mL; in test [10], 2.34 µg/mL. Also, the IC50, pseudoviral neutralization in test [1] is > 10 µg/mL.

Omi-42 (antibody): the pseudovirus neutralisation IC50 in [7] came out at 0.007 µg/mL; in test [8], 0.011 µg/mL; in [9], 0.016 µg/mL; in [10], 0.007 µg/mL. This substance also gave an IC50, pseudoviral neutralization in [1] of 0.008 µg/mL.

Regarding REGN10933 (antibody), in test [1], the IC50, pseudoviral neutralization is > 10 µg/mL.

In the case of REGN10987 (antibody), in [1], the IC50, pseudoviral neutralization is > 10 µg/mL.

Regarding S309 (antibody), the IC50, pseudoviral neutralization in test [1] is 0.584 µg/mL.

The values above are taken from patent US20250154231A1.
